Data: PMC8072677

Target: CCR7-EGFP (human CCR7 fused to EGFP) (human) (UniProt P32248)
Chain of UniProt P32248 (P32248 25-378): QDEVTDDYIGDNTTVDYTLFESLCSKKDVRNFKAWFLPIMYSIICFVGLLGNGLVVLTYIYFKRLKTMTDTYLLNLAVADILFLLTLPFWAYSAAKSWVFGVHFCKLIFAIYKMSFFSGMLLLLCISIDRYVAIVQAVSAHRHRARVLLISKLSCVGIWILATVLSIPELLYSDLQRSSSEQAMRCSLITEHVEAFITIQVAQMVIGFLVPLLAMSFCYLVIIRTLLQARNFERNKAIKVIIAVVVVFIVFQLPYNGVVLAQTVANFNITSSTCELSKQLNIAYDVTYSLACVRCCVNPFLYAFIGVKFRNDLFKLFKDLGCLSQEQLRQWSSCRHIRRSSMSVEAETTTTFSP

Transwell migration of 300-19 pre-B cells stably expressing CCR7 towards graded concentrations of chemokine, 3 h; concentration of maximal migration: 50 nM
Substance: CCL19 (recombinant untagged, native mature human CCL19) (from UniProt Q99731 22-98) (ligand)
